1 molecule from US12358954B2, “Capsid-modified rAAV vector compositions and methods therefor” (priority 2012, dated 2025) can be followed below.

The test relates to K562 cells. Kind of test: AAV6 transduction of K562 cells after enzyme / inhibitor treatment. In kind it is cell-based, human. The source says:
More recently, Denard et al. reported that galectin-3-binding protein in human sera agglutinates AAV6 vectors, which results in decreased transduction efficiency of these vectors. […] The identity of the putative receptor for AAV6 vectors in human CD34^+ cells remains elusive, and additional studies are warranted. […] The implication is that AAV6 uses a protein rather than a lipid on K562 cells for binding and entry into these cells. In addition, because AAV6 is known to have evolved from recombination between AAV1 and AAV2, and because AAV2 uses heparan sulfateproteoglycan (HSPG) as the primary cellular receptor, the level of HSPG expression on K562 cells surface was examined by FACS. […] The effect of inhibitors of O-linked and N-linked glycosylation was also evaluated on the transduction efficiency of AAV6 vectors in K562 cells.

B1: Proteinase K: Proteinase K (Sigma-Aldrich Co.) (protein, UniProt P06873 106-384, looked up)
Proteinase K: AAQTNAPWGLARISSTSPGTSTYYYDESAGQGSCVYVIDTGIEASHPEFEGRAQMVKTYYYSSRDGNGHGTHCAGTVGSRTYGVAKKTQLFGVKVLDDNGSGQYSTIIAGMDFVASDKNNRNCPKGVVASLSLGGGYSSSVNSAAARLQSSGVMVAVAAGNNNADARNYSPASEPSVCTVGASDRYDRRSSFSNYGSVLDIFGPGTSILSTWIGGSTRSISGTSMATPHVAGLAAYLMTLGKTTAASACRYIADTANKGDLSNIPFGTVNLLAYNNYQA
In the case of B1, the “effect on AAV6 vector-mediated transduction of K562 cells” value is “dramatically decrease”.
